From patent US20050152888A1 come the findings set out here.

The target of the test is Rpn10 proteasome subunit C-terminally fused with Fpr1 (strain Rpn10-FPR1) (S. cerevisiae) (UniProt P38886). Nature of the test: cell-based or functional assay.
Rpn10 proteasome subunit C-terminally fused with Fpr1 (strain Rpn10-FPR1) (S. cerevisiae), sequence (P38886 other isoform, or with tags, fused parts or gaps): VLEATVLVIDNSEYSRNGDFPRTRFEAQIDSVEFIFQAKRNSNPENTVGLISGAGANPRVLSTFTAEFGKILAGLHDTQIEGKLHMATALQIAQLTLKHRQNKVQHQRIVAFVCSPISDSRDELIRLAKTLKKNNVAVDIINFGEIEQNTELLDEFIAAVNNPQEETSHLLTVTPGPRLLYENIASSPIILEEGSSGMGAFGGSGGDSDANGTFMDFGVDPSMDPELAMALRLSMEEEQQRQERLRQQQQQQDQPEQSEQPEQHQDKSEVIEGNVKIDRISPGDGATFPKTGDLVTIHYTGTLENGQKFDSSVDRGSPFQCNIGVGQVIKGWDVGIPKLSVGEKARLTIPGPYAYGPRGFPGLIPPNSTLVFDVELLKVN

In the case of “HA epitope-tagged Tor-His3 purified from a bacterial expression system (PROTet.e133-TOR-link-HIS3HA) (from UniProt P35169 1883-2078; P06633 1-220)”, the half-life of reporter degradation in vitro with purified proteasomes and rapamycin (anti-HA Western) is 15 min.
